{"source": "patent US6262024", "target": "N-methyl-D-aspartate (NMDA) receptor (rat)"}
{"substance": "neuron regulatory factor (NRF) from rat", "values": [{"measurement": "anterior thalamic neuron survival over controls", "result": 700, "unit": "%"}]}
